Results: publication PMC3673938, “Two Distinct Calmodulin Binding Sites in the Third Intracellular Loop and Carboxyl Tail of Angiotensin II (AT1A) Receptor” (PLoS ONE, 2013)

How the values were obtained:
[1] = target: AT1A receptor-eYFP (UniProt P25095); experiment: FRET or BRET; BRET in living HEK293 cells stably expressing AT1A receptor-eYFP and transiently RLuc-CaM, CaM-RLuc or RLuc; 5 µM coelenterazine; ratio 525 nm/460 nm; with or without W7 (20 min) and/or 100 nM Ang II
[2] = target: GST-ATi3(213–242); experiment: pull-down; competition: 2 pmol GST-fusion protein incubated with bovine brain CaM (2 or 10 pmol) for 30 minutes in 20 mM Tris-HCl, 70 mM NaCl, 0.1 mM CaCl2, pH 7.5, then 2 pmol Gβγ for 1 hour; glutathione-sepharose 4B beads; immunoblot with anti-Gβ
[3] = target: GST-ATct(297–359); experiment: as above
[4] = target: GST-ATctN(297–324)F313A (UniProt P25095); experiment: pull-down; 50 pmol GST-fusion protein with purified bovine brain CaM (50 pmol) in 250 µl of 100 mM Tris-HCl pH 7.5 with 0.1 mM CaCl2; 4°C; glutathione-sepharose 4B beads; immunoblot with anti-CaM; for the mutants density of CaM against loaded GST-fusion protein
[5] = target: GST-ATi3N(213–234)W219A (UniProt P25095); experiment: as above
[6] = target: GST-ATctN(297–324)F309A (UniProt P25095); experiment: as above
Sequence of GST-ATctN(297–324)F309A (P25095 297-324 F309A): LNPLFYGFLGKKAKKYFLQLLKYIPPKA

Sequence of GST-ATi3(213–242) (P29754 213-242): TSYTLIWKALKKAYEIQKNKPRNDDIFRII
Sequence of GST-ATctN(297–324)F313A (P25095 297-324 F313A): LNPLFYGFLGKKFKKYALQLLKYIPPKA
Sequence of AT1A receptor-eYFP (P25095 whole entry, the tested form may be a part): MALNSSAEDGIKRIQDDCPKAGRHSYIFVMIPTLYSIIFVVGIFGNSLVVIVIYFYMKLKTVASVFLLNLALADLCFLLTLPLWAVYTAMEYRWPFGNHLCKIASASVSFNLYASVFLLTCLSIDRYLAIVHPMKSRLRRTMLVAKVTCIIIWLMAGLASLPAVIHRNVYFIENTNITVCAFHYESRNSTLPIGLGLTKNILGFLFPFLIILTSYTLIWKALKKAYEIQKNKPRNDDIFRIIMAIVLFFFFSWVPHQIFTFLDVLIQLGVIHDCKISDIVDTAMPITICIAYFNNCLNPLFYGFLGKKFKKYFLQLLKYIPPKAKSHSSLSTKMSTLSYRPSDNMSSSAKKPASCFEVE
Sequence of GST-ATi3N(213–234)W219A (P25095 213-234 W219A): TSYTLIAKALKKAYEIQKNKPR

Substance	BRET ratio with the CaM inhibitor W7, % of untreated (% of non-W7-treated) [1]	Gβγ bound to GST-i3 loop with 2 pmol CaM, % of no CaM [2]	Gβγ bound to GST-i3 loop with 10 pmol CaM, % of no CaM [2]	Gβγ bound to GST-ct with 2 pmol CaM, % of no CaM [3]	Gβγ bound to GST-ct with 10 pmol CaM, % of no CaM [3]	relative binding efficiency, % of wild type (% of wild type) [4]	relative binding efficiency, % of wild type (% of wild type) [5]	relative binding efficiency, % of wild type (% of wild type) [6]
CaM-RLuc (from UniProt P0DP23 1-149) (natural protein)	40	–	–	–	–	–	–	–
calmodulin purified from bovine brain (from UniProt P62157 1-149) (natural protein)	–	77%	60%	73%	34%	22	32	29
